Test results published in patent US20160011207A1, “DIAGNOSIS AND THERAPY OF CHRONIC INFLAMMATION-INDUCED DISORDERS” (VIRGINIA COMMONWEALTH UNIVERSITY, priority 2012, published 2016).
Entries after “also recorded” stand apart in the source; their conditions may differ.

Columns and labels:
HFD C57BL/6 mice = assay: Insulin tolerance test (ITT) in HFD-induced obese mice (Example 6); type: in vivo; details: 60 mg/kg AAT for 7 weeks, 0.75 unit/kg insulin i.p., 15, 60, 90 and 120 min after insulin, p<0.05
Description: FIG. 10. Insulin tolerance test (ITT).
Assessment of body weight, fed and fasting glucose, intraperitoneal glucose tolerance test (IPGTT) and insulin tolerance test (ITT) were performed at 8, 15 weeks of HFD.
Weekly assessment of body weight was performed. IPGTT and ITT were analyzed at 8, 15 weeks of HFD.
Description of murine models: Six week old male C57BL6/J BomTac mice were obtained from Taconic, Hudson, N.Y., and kept at 22° C. on a 12:12-h light-dark cycle, with food and water ad libitum. All mice were placed on a normal rodent diet (ND) D12450B for 1 week and then divided into two groups and fed with ND and high fat diet (HFD) D12492 for 16 weeks. ND (D12450B, calories provided by fat 10%, protein 20%, Carbohydrate 70%) and HFD (D12492, calories provided by fat 60%, protein 20%, Carbohydrate 20%) were from Research Diets, new Brunswick, NJ52.
Insulin tolerance test (ITT): After a 7-day recovery period, an ITT was performed on the same mice. […]
Data Analysis: 1) Mice with HFD feeding and with/without NSP inhibitor treatments awere studied with assessment of body weight, fed and fasting glucose, IPGTT and ITT. Statistical analysis: Differences between groups are determined by ANOVA followed by Turkey post hoc tests or by Student t Test as appropriate. Significance is considered as p<0.05.

NSPs (PR3/NE/CG) = assay: In vitro IGFBP-3 protease assay with NSPs and inhibitors (Example 5); type: biochemical; details: recombinant IGFBP-3, NSPs (PR3/NE/CG); example written in present tense
From the text: Since PR3, NE and CG appear to be involved in inflammation and metabolic disorders, all three proteases are characterized with respect to IGFBP-3 proteolysis in vitro.

AOM-DSS-treated mice = assay: CAC mouse model, AOM-DSS-treated mice (Example 10); type: in vivo; details: AAT 60 mg/kg once weekly, Example 10, written in present tense
Description: Studies are also carried out to determine whether administration of the NSP inhibitor (Aralast) inhibits progression of CRC in a CAC mouse model.
First, serum NSPs, IGFBP-3 and IGFBP-3 proteolysis are determined during CRC development in AOM-DSS-treated mice with/without Aralast administration (60 mg/kg body weight once weekly) (6 mice/group). Serum NSPs (PR3,NE,CG), IGFBP-3, and proteolyzed IGFBP-3 and cytokines ([…], IL-6, IL-1β) are analyzed biweekly using Western immunoblotting, IGFBP-3 protease activity assays and mouse specific ELISAs (ELISA kits for PR3 from USCN life science; NE from Biotang USA; CG from CusaBio; TNF-α from Thermo Scientific; and IGFBP-3 from Sigma).
After sacrificing, mice colons are removed and flushed with phosphate-buffered saline (PBS) for macroscopic inspection. Tumor counts are performed in a blinded fashion. Tumor volume (V) is calculated […] by measuring length (L) and width (W) of the tumor with calipers and using the following formula: V={W×L×[(W+L)/2]}×0.52. Using paraformaldehyde fixed or fresh frozen tissue the proteins/genes involved in cell proliferation and inflammatory signaling are examined using Ki67 staining, apoptosis detection kit (Roche Dignostics GmbH) as well as immunoblotting and qRT-PCR for TNF-α, IL-6, IL-1β, NF-κB, IκBκ, IGFBP-3 and IGFBP-3R. […]

NSPs (PR3, NE, and CG) = assay: NSP-induced IGFBP-3 proteolysis with inhibitors (Example 10); type: biochemical; details: Example 10, written in present tense
From the text: The biological impact of NSPs (PR3, NE, and CG) on IGFBP-3 proteolysis and the antitumor actions of IGFBP-3/IGFBP-3R signaling is investigated, e.g. to characterize specific mechanisms by which NSPs modulate the biologic impact of IGFBP-3/IGFBP-3R on cell proliferation, apoptosis in CRC. Accordingly, the impact of NSPs on the antitumor and anti-inflammatory functions of IGFBP-3 in a variety of colon cancer cells (HT-29, Caco-2, HCT116 and LoVo) is investigated using recombinant IGFBP-3 (intact or NSP-proteolyzed fragments), NSPs and their inhibitors. The involvement of IGFBP-3R on IGFBP-3's effects is tested by manipulating endogenous IGFBP-3R expression using additional lentiviral-IGFBP-3-GFP, IGFBP-3R siRNAs, Adeno-IGFBP-3R, NSPs and protease inhibitors in the same cell systems.
Human and mouse specific IGFBP-3 antibodies (Abs)20, IGFBP-3R Abs20, IGFBP-3 protease assay, and adeno-, retro- and lenti-viral plasmids transfused with IGFBP-3, IGFBP-3R or their small hairpin RNAs (shRNAs) are utilized in these investigations.
The differential impact of intact IGFBP-3 and IGFBP-3 fragments on induction of apoptosis, cell proliferation in CRC cells is quantified using a Cell death assay, WST assay and qRT-PCR and immunoblotting.

PR3 = target: T1, PR3 (Homo sapiens, UniProt P24158); assay: In vitro IGFBP-3 proteolysis by PR3, Western immunoblotting; type: biochemical; details: for inhibition of PR3-induced IGFBP-3 proteolysis (Western immunoblot, in words): FIG. 8 and 9A
T1 sequence (P24158 28-248): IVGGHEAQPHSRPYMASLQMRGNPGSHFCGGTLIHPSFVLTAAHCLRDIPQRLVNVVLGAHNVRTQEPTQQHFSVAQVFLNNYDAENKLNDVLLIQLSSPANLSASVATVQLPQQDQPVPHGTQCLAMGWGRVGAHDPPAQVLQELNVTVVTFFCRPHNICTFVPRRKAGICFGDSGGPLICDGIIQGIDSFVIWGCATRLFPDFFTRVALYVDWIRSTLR
Description: FIG. 4A-B. A, increased serum PR3 and IGFPR-3 proteolysis in high fat diet (HFD) mice. The increased IGFBP-3 proteolytic fragments and PR3 were detected in HFD compared with chow diet (CD) fed mice by Western immunoblotting using mouse IGFBP-3 or PR3 specific antibodies. […] IGFBP-3 proteolytic fragments were detected in recombinant IGFBP-3 (100 ng) and PR3 (500 ng) treated samples by Western immunoblotting.
FIG. 8. […] Recombinant IGFBP-3 (100 ng) was proteolyzed by treatment with […] PR3 for 60 min. at 37° C. (lane 2).
(§1) FIG. 9A-C. Inhibitory effect of the small peptide on NSP-induced IGFBP-3 proteolysis. […] Recombinant IGFBP-3 (100 ng) was proteolyzed by treatment with 100 nM PR3 for 60 min at 37° C. (lane 3). […] B. In vitro IGFBP-3 proteolysis by NE and CG. […] Recombinant IGFBP-3 (100 ng) was proteolyzed by treatment with NE (70 nM) and CG (200 nM) for 20 min. at 37° C. The treated samples were subject to Western immunoblotting using polyclonal IGFBP-3 antibodies. NE and CG proteolyze IGFBP-3 (lanes 2 and 7). […] C. The sequence of small inhibitory peptide (LIRCAML). Putative small inhibitory peptide binding site on PR3 ([…]) and NE ([…]), of which sequences are well conserved in both PR3 and NE.
Since it has been reported that PR3 appears to contribute to progression of chronic inflammatory diseases, we characterized PR3 as a specific IGFBP-3 protease in obese condition. The experiments were carried out using recombinant PR3 and IGFBP-3, and Western immunoblotting with IGFBP-3 specific antibody.
This peptide and/or suitable variants thereof can thus be used to treat individuals with chronic inflammation (obesity)-induced insulin resistance.

CG = target: T2, CG (Homo sapiens, UniProt P08311); assay: In vitro IGFBP-3 proteolysis by CG, Western immunoblotting; type: biochemical; details: recombinant IGFBP-3 100 ng; CG 200 nM, 20 min at 37° C.; FIG. 9B
T2 sequence (P08311 21-244): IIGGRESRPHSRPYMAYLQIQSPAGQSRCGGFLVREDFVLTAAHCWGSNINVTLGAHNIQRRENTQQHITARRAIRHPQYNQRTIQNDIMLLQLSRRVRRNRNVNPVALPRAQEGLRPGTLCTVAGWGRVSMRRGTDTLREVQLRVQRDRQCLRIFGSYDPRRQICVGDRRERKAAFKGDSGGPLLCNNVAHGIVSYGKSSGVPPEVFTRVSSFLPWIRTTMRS
Description: as §1

[1] = test system: primary adipocytes, myoblasts and hepatocytes; assay: Insulin sensitizing effects of IGFBP-3 in cells treated with proteases and inhibitors (Example 7); type: cell-based; details: Example 7, written in present tense
From the text: The levels of the three NSPs and IGFBP-3 protease activity in sera from lean and obese mice fed with CD and HFD, respectively, for 16 weeks are investigated using Western immunoblotting, ELISAs and an IGFBP-3 protease activity assay. Further, the impact of PR3-induced proteolysis and inhibitors (Prolastin and a small peptide inhibitor) on insulin sensitizing effects of IGFBP-3 in primary adipocytes (Invitrogen/Life Technologies, Grand Islands N.Y.), myoblasts and hepatocytes (Eton Bioscience, Research Triangle Park, N.C.) is investigated. The cells are treated with IGFBP-3 or PR3 proteolyzed IGFBP-3 fragments with and without insulin, and analyzed for glucose uptake, levels of insulin receptor substrates (IRSs), glucose transporters (GLUTs), adiponectin (in adipocytes) and intracellular glycogen content (in hepatocytes) using a glucose uptake assay, qRT-PCR, Western immunoblotting and a glycogen assay kit. Further experiments are performed to treat cells with IGFBP-3 and PR3 in the presence and absence of Prolastin or the small peptide inhibitor(s) described herein. The inhibitory effects of NE and CG on IGFBP-3's insulin-sensitizing effects are also determined using similar laboratory methods. The involvement of IGFBP-3R on the insulin signaling pathway is also investigated by manipulating endogenous IGFBP-3R expression using IGFBP-3R siRNAs. […]

NE = target: T3, NE (Homo sapiens, UniProt P08246); assay: In vitro IGFBP-3 proteolysis by NE, Western immunoblotting; type: biochemical; details: recombinant IGFBP-3 100 ng; NE 70 nM, 20 min at 37° C.; FIG. 9B
T3 sequence (P08246 30-267): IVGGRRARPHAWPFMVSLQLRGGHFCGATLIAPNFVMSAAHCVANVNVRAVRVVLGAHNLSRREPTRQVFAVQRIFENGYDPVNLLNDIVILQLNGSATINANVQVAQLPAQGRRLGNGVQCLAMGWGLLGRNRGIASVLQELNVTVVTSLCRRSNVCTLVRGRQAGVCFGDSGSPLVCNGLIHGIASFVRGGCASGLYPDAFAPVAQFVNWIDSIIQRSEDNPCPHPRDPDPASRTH
Description: Inhibitory effect of the small peptide on NSP-induced IGFBP-3 proteolysis. […] B. In vitro IGFBP-3 proteolysis by NE and CG. […] Recombinant IGFBP-3 (100 ng) was proteolyzed by treatment with NE (70 nM) and CG (200 nM) for 20 min. at 37° C. The treated samples were subject to Western immunoblotting using polyclonal IGFBP-3 antibodies.

[2] = recombinant IGFBP-3 100 ng, 100 nM PR3, 60 min at 37° C.

| Compound | blood glucose levels in ITT versus PBS control (HFD C57BL/6 mice) | NSP-induced proteolysis of IGFBP-3 (Example 5, in words) (NSPs (PR3/NE/CG)) | tumor incidence and size compared with untreated mice (AOM-DSS-treated mice) | NSP-induced proteolysis of IGFBP-3 (Example 10, in words) (NSPs (PR3, NE, and CG)) | inhibition of PR3-induced IGFBP-3 proteolysis (Western immunoblot, in words) (PR3; [2]) | inhibition of PR3-induced IGFBP-3 proteolysis (FIG. 4B, in words) (PR3; recombinant IGFBP-3 (100 ng) and PR3 (500 ng)) | inhibition of IGFBP-3 proteolysis by CG (in words) (CG) | effect on protease-induced IGFBP-3 proteolysis and inhibition of IGFBP-3's normal metabolic function [1] | inhibition of IGFBP-3 proteolysis by NE (in words) (NE) | inhibition of IGFBP-3 proteolysis induced by 100 nM PR3 treatment (PR3; peptide at 0.5 μM, recombinant IGFBP-3 100 ng, 100 nM PR3, 60 min at 37° C.) | inhibitory effect on PR3 activity compared with AAT (PR3; peptide at 20 μM versus 100 nM AAT, 100 nM PR3) |
| --- | --- | --- | --- | --- | --- | --- | --- | --- | --- | --- | --- |
| α-1-antitrypsin [AAT] | significantly lower | blocked | decreases tumor incidence and size | blocked | inhibited | completely inhibited; also recorded: Few IGFBP-3 proteolytic fragments were detected | inhibited |  |  |  |  |
| CC(C)[C@@H]1C(=O)N(S(C)(=O)=O)[C@@H]2CCN(C(=O)/C=C/CN3CCCCC3)[C@H]21.Cl [GW311616A, reference compound] |  |  |  |  |  |  |  | reverse this effect |  |  |  |
| LIRCAML (Synthetic peptide inhibitor) |  | blocked |  |  | potent inhibitory effect; also recorded: inhibited IGFBP-3 proteolysis in a dose-dependent manner (0.5-20 μM); also recorded: inhibited IGFBP-3 proteolysis in a does-dependent manner (0.05-1 μM) |  | inhibited IGFBP-3 proteolysis by NE or CG in a dose-dependent manner (0.5-1 μM) | reverse this effect | inhibited IGFBP-3 proteolysis by NE or CG in a dose-dependent manner (0.5-1 μM) | more than 50% | comparable to that of 100 nM AAT |
